Values belong to the binder of their own block, whether it stands above or below them.
Target: T1, C-terminal half of Sec8 (Sec8c, aa544–975) (rat, UniProt Q62824 544-975)
T1 construct: Sec8 (exocyst subunit), Rattus norvegicus, C-terminal half, aa544–975; ends with the ITTV motif; Used in ITC and SEC under the plain name Sec8c; source: E. coli BL21-DE3, purified (Ni-HiTrap HP; Superdex 200)
Assay: ITC; 300 µM SAP102 truncation in the syringe titrated into 30 µM Sec8c (or Sec8c-Δ958–971) in the cell; 20 mM HEPES pH 7.5, 100 mM NaCl, 1 mM DTT; one-set-of-sites model; control titration (protein to buffer) subtracted
Conditions: both partners purified

T1 sequence (Q62824 544-975): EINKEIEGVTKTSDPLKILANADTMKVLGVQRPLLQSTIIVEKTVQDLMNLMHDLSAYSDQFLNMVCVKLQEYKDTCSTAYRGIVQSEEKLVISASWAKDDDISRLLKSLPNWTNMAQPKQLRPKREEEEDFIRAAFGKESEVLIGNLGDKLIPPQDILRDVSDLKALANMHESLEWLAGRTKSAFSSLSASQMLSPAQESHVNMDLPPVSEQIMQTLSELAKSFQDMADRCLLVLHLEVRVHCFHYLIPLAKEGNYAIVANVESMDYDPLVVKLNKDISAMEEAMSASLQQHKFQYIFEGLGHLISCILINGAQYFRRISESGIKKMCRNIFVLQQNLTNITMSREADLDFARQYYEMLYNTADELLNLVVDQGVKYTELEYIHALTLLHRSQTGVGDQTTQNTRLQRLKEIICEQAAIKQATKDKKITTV

Kd: ~6 µM
B1: SAP102 PDZ1-PDZ2 (aa144–331) (domain or fragment, rat, UniProt Q62936 144-331, looked up)
chain: MFKYEEIVLERGNSGLGFSIAGGIDNPHVPDDPGIFITKIIPGGAAAMDGRLGVNDCVLRVNEVDVSEVVHSRAVEALKEAGPVVRLVVRRRQPPPETIMEVNLLKGPKGLGFSIAGGIGNQHIPGDNSIYITKIIEGGAAQKDGRLQIGDRLLAVNNTNLQDVRHEEAVASLKNTSDMVYLKVAKPG
notes: also called tandem PDZ1-PDZ2; source: E. coli BL21-DE3, purified (Ni-HiTrap HP, SENP2 cleavage, Superdex 200); not shown: His6-SUMO, N-terminal, cleaved

Kd: ~4 µM
B2: SAP102 PDZ2 (aa241–331) (domain or fragment, rat, UniProt Q62936 241-331, looked up)
chain: TIMEVNLLKGPKGLGFSIAGGIGNQHIPGDNSIYITKIIEGGAAQKDGRLQIGDRLLAVNNTNLQDVRHEEAVASLKNTSDMVYLKVAKPG
notes: source: E. coli BL21-DE3, purified (Ni-HiTrap HP, SENP2 cleavage, Superdex 200); not shown: His6-SUMO, N-terminal, cleaved

From article PMC10577314 (Frontiers in Cell and Developmental Biology, 2023)
